This is an account of results in patent US20220395548A1 (MOREHOUSE SCHOOL OF MEDICINE, published 2022).

Assay [1] addresses gp120 of HIV-1NL4-3 (on virus particles) (HIV-1 (NL4-3)). In words: cell-based or functional assay.
Assay [2] has as its target T1, purified HIV-1 gp120 (gp120-IIIB, Immuno Dx) (HIV-1 (IIIB), UniProt P04578 33-511).
T1 construct: domain: gp120; also called HIV gp120; purified gp120
In words: SPR (Biacore T200), gp120 amine-coupled to CM5 chip, MoMo30 flowed over; 1:1 model fit; three independent measurements in triplicate. For orientation: Surface plasmon resonance follows binding to a sensor surface in real time, without labels.

B1: MoMo30 protein from Momordica balsamina (purified from leaf extract, 30 kDa cutoff retentate) (other)
chain: GGIATYWGQDTREGRLTAACATGKFQIINIGFLSTFGNGRPPQVNLTRHCSPISNGCRNVSVGVLNCRNDGVKVMLSIGGPHGSYSLSSAAEAIDLADYIWNNFLGGRSTSLRPFGDVPLDGVDFRIERGQFSHYYTMVARRLHDYGRQCSRKVYLTAAPGCRFPDKYLTELLHTGLFDYVWVRFFDDRQCQYNSVNPSGFWWSWMRWINSIPARKFYVGIPASEEAGDGYVAPEVLIKEVLPFTKKFTNYGGVMLFDLSNDVQTNYSSIISNRV
notes: also called 30 kDa MoMo protein; hevamine A-related MoMo30 protein
What is called Kd is the equilibrium constant for the complex coming apart. High values mean a looser complex, low ones a tighter complex. Broadly, the koff is a measure of how fast the partners let go of each other. Low values mean slow dissociation, high ones fast dissociation. By kon is commonly meant the rate constant with which the complex forms. Read a high kon as faster complex formation. For B1, in assay [1], the “IC50 of inhibition of HIV-1NL4-3 infectivity, MAGI cell assay” value amounted to 0.0028 µM. In addition, in assay [2], binding was characterised by a dissociation constant (Kd) of 6 µM, the koff was found to be 0.00242 s⁻¹ and the kon was 400 M⁻¹ s⁻¹.
